Measurements reported in the nanobody polyreactivity screen of Harvey et al. (2022).

Experiment: yeast display, Sf9 membrane polyspecificity reagent, FACS + sequencing; frameworks hold sequencing errors
Summary of the method: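 Nanobodies came from a synthetic yeast display library in Saccharomyces cerevisiae BJ5465, induced with galactose for 36–48 hours and stained for 1 hour at 4 °C with 10% biotinylated, detergent-solubilized Sf9 membrane reagent. Cells were enriched on streptavidin microbeads and then FACS-sorted, with low and high (top ~1%) gates set on anti-HA fluorescence for expression and streptavidin fluorescence for reagent binding. Each polyreactivity label reflects the gate a clone came from. Genes were amplified by colony PCR, sequenced by MiSeq 2 × 250 and filtered by CDR length.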
For “QVQLVESGGGLVQAGGSLRLSCAASGRTFGYYAMGWYRQAPGKERELVAAITRTGGSTHYADSVKGRFTISRDNAKNTVYLQKNSLKPEDTAVYYCARDYRYTIPYDYWGQGTQVTVSS”, the “polyreactivity (PSR sort gate)” value was “low polyreactivity”.
In the case of “QVQLVESGGGLVQAGGSLRLSCAASGRTFGYYAMGWYRQAPGQERELVAAISWSDSGTYYADSVKGRFTISRDNAKNTVYLQMNSLKPEDTAVYYCAKDEPYFVFRDTYDYWGQGTQVTVSS”, the “polyreactivity (PSR sort gate)” value is reported as “high polyreactivity”.
With “QVQLVESGGGLVQAGGSLRLSCAASGRTFGYYGMGWYRQAPGKERELVASINFSSGSTFYADSVKGRFTISRDNAKNTVYLQMNSLKPEDTAVYYCAARAKAVRTYAYNYWGQGTQVTVSS” the “polyreactivity (PSR sort gate)” value was “low polyreactivity”.
With “QVQLVESGGGLVQAGGSLRLSCAASGRTFGYYVMGWYRQAPGKERELVAAISRSGGTTYYADSVKGRFTISRDNAKNTVYLQMNSLKPEDTAVYYCATDSRTGYDYWGQGTQVTVSS” the “polyreactivity (PSR sort gate)” value was “high polyreactivity”.
For “QVQLVESGGGLVQAGGSLRLSCAASGRTFHGYAMGWYRQAPGKERELVAAITSSGARTYYADSVKGRFTISRDNAKNTVFLQMNILKPEDSAVYYCAVNWLRGMDWGQGTQVTVSS”, the “polyreactivity (PSR sort gate)” value was “high polyreactivity”.
In the case of “QVQLVESGGGLVQAGGSLRLSCAASGRTFHLYAIGWSRQAAGKERELVAAINSGGRTNYADSVKGRFTISLDNAKNTVYLQLNSLKPEDTAVYYCAARANPYVLKYYYWGQGSQVTVSS”, the “polyreactivity (PSR sort gate)” value is reported as “high polyreactivity”.
For “QVQLVESGGGLVQAGGSLRLSCAASGRTFHNYAMGRYRQAPGKERELVAAISRGGNTYYADSVKGRFTISRDNSKNTVYLQMNSLKPEDTAVYYCAKDNHFEAYRYDYWGQGTQVTVSS”, the “polyreactivity (PSR sort gate)” value was “high polyreactivity”.
For “QVQLVESGGGLVQAGGSLRLSCAASGRTFHRNAMGWYRQAPGKERELVAAITGDGRTNYADSVKGRFTISRDNAKNTVYLQMNSLKPEDTAVYYCNRDNDYYRPGGRPVGIFDYWGQGTQVTVSS”, the “polyreactivity (PSR sort gate)” value was “low polyreactivity”.
With “QVQLVESGGGLVQAGGSLRLSCAASGRTFHRYAMGWYRPAPGKERELVAAISRGGITYYADSVKGRFTISRDNAKNTVYLQMNSLKPEDTAVYFCAALYRYYHESSPFDYWGQGTQVTVSS” the “polyreactivity (PSR sort gate)” value was “high polyreactivity”.
For “QVQLVESGGGLVQAGGSLRLSCAASGRTFHRYAMGWYRQAPVKEREVLAAITSSGGSTNYADSVKVRFTISRDNAKNTVYVQMNSLQPEDTAVYYCATDRYRYTSHPWSRGFDYWGQGTQVTVSS”, the “polyreactivity (PSR sort gate)” value was “low polyreactivity”.
With “QVQLVESGGGLVQAGGSLRLSCAASGRTFHSYAMGWYRQAPGKERELVAAIRGRGGTTYYADSVKGRFTFSRDNAKNTVYLQMNSLKPEDTAVYYCNAVVRRYFTAAATYDYWGQGTQVTVSS” the “polyreactivity (PSR sort gate)” value was “high polyreactivity”.
For “QVQLVESGGGLVQAGGSLRLSCAASGRTFHVYAMGWYRQAPGKEREFVAFISRRGGSTYYADSVKGRFTISRDNAKNTVYLQMNSLKPEDTAVYYCKARYVTSRSAYQRGGDYWGQGTQVTVSS”, the “polyreactivity (PSR sort gate)” value was “high polyreactivity”.
With “QVQLVESGGGLVQAGGSLRLSCAASGRTFHWYAMGGYRQAPGKERELVAAIRYSAGSTYYADSVKGRFTISRDNAKNTVYLQMNSLKPEDTAVYYCAAEPYPYGPYYLLWLRYDYWGQGTQVTVSS” the “polyreactivity (PSR sort gate)” value was “low polyreactivity”.
In the case of “QVQLVESGGGLVQAGGSLRLSCAASGRTFIANAMGWYRKAPRKERELLAVITLNGGSTYYADSVKGRFTISRDNAKKTVYLQMNSLKPEDTAVYYCNARYYPLYSKSYDSWGQGTQVPVSS”, the “polyreactivity (PSR sort gate)” value is reported as “low polyreactivity”.
For “QVQLVESGGGLVQAGGSLRLSCAASGRTFIFYAMGWYRQAPGKERELVAAITYSGTSTYYADSVKGRFTISRDNAKNTVYLQMNSLKPEDTAVYYCAKDGQRDANYYWGQGTQVTVSS”, the “polyreactivity (PSR sort gate)” value was “low polyreactivity”.
For “QVQLVESGGGLVQAGGSLRLSCAASGRTFIGYAMGWYRQAPGKERELVAAISSSGGRTYYADSVKGRFTISRDNAKNTVYLQMNSLKPEDTAVYYCATGSWARDYYYWGQGTQVTVSS”, the “polyreactivity (PSR sort gate)” value was “high polyreactivity”.
With “QVQLVESGGGLVQAGGSLRLSCAASGRTFIHYAMVWYRQAPGKERELVAAISRRGGSTYYADSVKGRFTISRDNAKNTVYLQMNSLKPEDTAVYYCAKATTTREPKYGYWGQGTQVTVSS” the “polyreactivity (PSR sort gate)” value was “high polyreactivity”.
In the case of “QVQLVESGGGLVQAGGSLRLSCAASGRTFIKYAMGWYRPAPGKERELVAAITHRGTNTYYADSVKGRFTISRDNAKYTVYLQMNSLKPEDTAVYYCAAAAPSYPSYDYWGQGTQVTVSS”, the “polyreactivity (PSR sort gate)” value is reported as “low polyreactivity”.
With “QVQLVESGGGLVQAGGSLRLSCAASGRTFIWYAMGWYRQAPGKEREFVAAIRSSGGRTYYADSVKGRFTISRDNAKNTVYLQMNSLKPEDTAVYYCAKEAYYGWYWYGYWGQGTQVTVSS” the “polyreactivity (PSR sort gate)” value was “high polyreactivity”.
With “QVQLVESGGGLVQAGGSLRLSCAASGRTFIWYVMGWYRQAPGKERELVASISTNGGNTYYADSVKGRFTISRDNAKNTVYLQMNSLKPEDTAVFYCAVDGVDAYYIAYYYWGQGTQVTVSS” the “polyreactivity (PSR sort gate)” value was “high polyreactivity”.
In the case of “QVQLVESGGGLVQAGGSLRLSCAASGRTFIYYAMGWYRQAPGKERELVAGISRNGGRTYYADSVKGRFTISRDNAKNTVYLQMNSLKPEDTAVYYCNAYPPSRHDYWGQGTQVTVSS”, the “polyreactivity (PSR sort gate)” value is reported as “high polyreactivity”.
With “QVQLVESGGGLVQAGGSLRLSCAASGRTFKAYAMGWYRQAPGKEREFVAAITKRGGSTYYADSVKGRFTISRDNAKNTVYLQMNSLKPEDTAVYYCAVGLGRYTHTSVPIPSYDYWGQGTQVTVSS” the “polyreactivity (PSR sort gate)” value was “high polyreactivity”.
For “QVQLVESGGGLVQAGGSLRLSCAASGRTFKCYAMGWYRQAPGKETELVAAISYRGGSTYYADSVKGRFTISRDNAKNTVYLQIKRLKPEDTAVYYCAARWNRGRYDYWGQGTQVTESS”, the “polyreactivity (PSR sort gate)” value was “high polyreactivity”.
With “QVQLVESGGGLVQAGGSLRLSCAASGRTFKENAMGWYRQAPGKERELVAVINSGGRTYYADSVKGRFTISRDNAKNTVYLQMNSLKPEDTAVYYCAAYSRSKESGYWGQGTQVTVSS” the “polyreactivity (PSR sort gate)” value was “high polyreactivity”.
For “QVQLVESGGGLVQAGGSLRLSCAASGRTFKFYAMGWYRQAPGKERELVATITSGGSTYYADSVKGRFTISRDNAKNTVYLQMNSLKPEDTAVYYCNKRYRKPGSGWYDSWGQGTQVTVSS”, the “polyreactivity (PSR sort gate)” value was “high polyreactivity”.
In the case of “QVQLVESGGGLVQAGGSLRLSCAASGRTFKGYAMGWYRQAPGKERELVAAISYRGGSTYYADSVKGRFTISRDNAKNTVYLQMNSLKPEDTAVYYCAARWNRGRYDYWGQGTQVTVSS”, the “polyreactivity (PSR sort gate)” value is reported as “high polyreactivity”.
With “QVQLVESGGGLVQAGGSLRLSCAASGRTFKGYAMGWYRQAPGKERELVAGISTGGNTNYADSVMGRFTISRDNAKNTVYLQMNSLKPEDTAVYYCNAVYRGFTHYTGYEYWGQGTQVTVSS” the “polyreactivity (PSR sort gate)” value was “high polyreactivity”.
With “QVQLVESGGGLVQAGGSLRLSCAASGRTFKGYAMGWYSQAPGKDRELVAAISYRGGSTYYADSVKGRFTISRDNAKNTGYLQMNILKPEDTAFYYCAARWNRGRYDYWGQGTQVTVSS” the “polyreactivity (PSR sort gate)” value was “high polyreactivity”.
With “QVQLVESGGGLVQAGGSLRLSCAASGRTFKHYAMGGYRQAPGKERELVAAITSGGSTYYADSVKGRFTISRDNAKNTVYLQMNSLKPEDTAVYYCNKESYFDTYRRYDSWGQGTQVTVSS” the “polyreactivity (PSR sort gate)” value was “low polyreactivity”.
In the case of “QVQLVESGGGLVQAGGSLRLSCAASGRTFKIYAMGWYRQAPGKEREFVASINWSGGITYYADSVKGRFTISRDNAKNTVYLQMNSLKPEDTAVYYCAARIDSSRIGKRFYYWGQGTQVTVSS”, the “polyreactivity (PSR sort gate)” value is reported as “high polyreactivity”.
With “QVQLVESGGGLVQAGGSLRLSCAASGRTFKKYALGWYRQAPGKEREVVAAITSRVRSTSYADSVKGRFTISRDNAKNTVYLQMNSLIPEDTAVYYCAARYSVGNGYGYWGQVTQVTVSS” the “polyreactivity (PSR sort gate)” value was “high polyreactivity”.
For “QVQLVESGGGLVQAGGSLRLSCAASGRTFKKYAMGWYRQAPGKERELVAAIRRSGGSTYYADSVKGRFTISRDNAKNTVYLQMNSLKPEDTAVYYCAADFRVGRYDYWGQGTQVTVSS”, the “polyreactivity (PSR sort gate)” value was “high polyreactivity”.
In the case of “QVQLVESGGGLVQAGGSLRLSCAASGRTFKKYAMGWYRQAPGKERELVAAITSRVGSTSYADSVKGRFTISRDNAKNTVYLQMNSLKPEDTAVYYCAARYSVGTGYGYWGQGTQVTVSS”, the “polyreactivity (PSR sort gate)” value is reported as “high polyreactivity”.
In the case of “QVQLVESGGGLVQAGGSLRLSCAASGRTFKKYAMGWYRQAPGTERELVAAFTGSGGSTYYADSVKGRFTISRDNAKNTVYLKMNSLKPEDTAVYYCAAYAYGVWHSQDGGNYWGQGTQVTVSS”, the “polyreactivity (PSR sort gate)” value is reported as “low polyreactivity”.
For “QVQLVESGGGLVQAGGSLRLSCAASGRTFKKYTMGWYRQAPGKERELVAVITSGGSTYYADSVKGRFTISRDNAKNTVYLQMNSLKPEDTAVYYCATKASYKGDYWGQGTQVTVSS”, the “polyreactivity (PSR sort gate)” value was “high polyreactivity”.
With “QVQLVESGGGLVQAGGSLRLSCAASGRTFKLYAMGWYRQAPGKESELVAAISRSGGSTYYADSVKGRFTISRDNAKNTVYLQMKSLKPEDTAVYYCNRRQGYHGDYDYWGQGTQVTVSS” the “polyreactivity (PSR sort gate)” value was “high polyreactivity”.
With “QVQLVESGGGLVQAGGSLRLSCAASGRTFKPNAMGWYRQAPGKERELVASINDVGSTNYADSVKGRFTISRDNAKNTVYLQMNSLKPEDTAVYYCAADPYWYPYYGYYILYDYWGQGTHVTVSS” the “polyreactivity (PSR sort gate)” value was “low polyreactivity”.
With “QVQLVESGGGLVQAGGSLRLSCAASGRTFKRNAMGWYRQAPGKERELVAGISTGGSTNYADSVKGRFTISRDNAKNTVYLQMNSLKPEDTAVYYCAARYRTDWTPGYHVGYYYWGQGTQVTVSS” the “polyreactivity (PSR sort gate)” value was “high polyreactivity”.
In the case of “QVQLVESGGGLVQAGGSLRLSCAASGRTFKRNAMGWYRQAPGKERELVASISWRGGSTYYADSVKGRFTISRDNAKNTVFLQMKSLKPEDTAVYYCAAQYPVWRRLYRTWLVAEVDYWGQGTQVTVSS”, the “polyreactivity (PSR sort gate)” value is reported as “low polyreactivity”.
In the case of “QVQLVESGGGLVQAGGSLRLSCAASGRTFKRYAMGWYRQAPGKERELVAAITFSGGSTYYADSVKGRFTISRDNAKNTVYLQMNSLKPADTAVYYCAAVGEHYPWDYYWGQGTQVTVSS”, the “polyreactivity (PSR sort gate)” value is reported as “high polyreactivity”.
With “QVQLVESGGGLVQAGGSLRLSCAASGRTFKRYAMGWYRQAPGKERELVARITYSGARTYYADSVKGRFTISRDNAKNTVYLQMNSLKPEDTAVYYCAAQQYWTSQYFRSATFDYWGQGTQVTVSS” the “polyreactivity (PSR sort gate)” value was “high polyreactivity”.
